Patent US20220242962A1 (APTEVO RESEARCH AND DEVELOPMENT, published 2022)
Numbering of substitutions follows the chain as printed. Numbers in names are those of the source.

T1: Fc gamma receptor RIIA R167 (human, UniProt P12318 36-218)
T1 construct: soluble SPR analyte
T1 sequence (looked up): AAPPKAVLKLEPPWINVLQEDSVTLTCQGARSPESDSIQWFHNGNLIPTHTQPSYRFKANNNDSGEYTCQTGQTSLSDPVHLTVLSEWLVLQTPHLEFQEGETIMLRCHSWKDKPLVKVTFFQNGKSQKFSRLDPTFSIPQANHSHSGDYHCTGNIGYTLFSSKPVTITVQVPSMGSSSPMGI

T2: Fc gamma receptor RIIA H167 (human, UniProt P12318 36-218)
T2 construct: soluble SPR analyte
T2 sequence (looked up): T1 sequence (looked up) with R132H

T3: Fc gamma receptor RIIB/C (human, UniProt P31994 46-217)
T3 construct: soluble SPR analyte
T3 sequence (looked up): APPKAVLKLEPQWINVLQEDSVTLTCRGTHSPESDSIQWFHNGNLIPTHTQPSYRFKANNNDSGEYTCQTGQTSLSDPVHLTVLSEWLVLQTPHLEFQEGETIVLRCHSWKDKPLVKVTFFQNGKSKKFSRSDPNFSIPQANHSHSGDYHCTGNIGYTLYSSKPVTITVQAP

T4: Fc gamma receptor RIIA H131 on CHO-K1SV cells (human, UniProt P12318 34-317)
T4 construct: whole, on cells
T4 sequence (looked up): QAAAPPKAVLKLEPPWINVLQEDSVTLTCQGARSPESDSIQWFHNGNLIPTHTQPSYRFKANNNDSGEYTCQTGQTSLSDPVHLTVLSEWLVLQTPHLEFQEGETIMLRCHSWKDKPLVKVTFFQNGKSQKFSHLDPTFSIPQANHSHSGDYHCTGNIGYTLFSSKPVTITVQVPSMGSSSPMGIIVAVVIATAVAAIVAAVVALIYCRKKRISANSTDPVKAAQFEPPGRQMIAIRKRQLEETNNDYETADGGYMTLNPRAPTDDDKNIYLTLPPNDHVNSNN

T5: Fc gamma receptor RIIB/C on CHO-K1SV cells (human, UniProt P31994 43-310)
T5 construct: whole, on cells
T5 sequence (looked up): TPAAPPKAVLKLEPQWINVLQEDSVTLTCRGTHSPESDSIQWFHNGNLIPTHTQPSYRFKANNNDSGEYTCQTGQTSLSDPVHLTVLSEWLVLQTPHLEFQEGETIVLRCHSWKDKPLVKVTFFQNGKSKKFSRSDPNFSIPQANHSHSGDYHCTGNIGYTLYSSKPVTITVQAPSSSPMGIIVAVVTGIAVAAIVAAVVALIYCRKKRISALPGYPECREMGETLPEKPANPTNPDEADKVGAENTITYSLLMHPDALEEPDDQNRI

T6: Full-length Cyno 4-1BB (cynomolgus monkey, UniProt Q07011 24-255 (human entry))
T6 construct: on Jurkat or CHO cells; also called FOB006; cynomolgus 4-1BB
T6 chain: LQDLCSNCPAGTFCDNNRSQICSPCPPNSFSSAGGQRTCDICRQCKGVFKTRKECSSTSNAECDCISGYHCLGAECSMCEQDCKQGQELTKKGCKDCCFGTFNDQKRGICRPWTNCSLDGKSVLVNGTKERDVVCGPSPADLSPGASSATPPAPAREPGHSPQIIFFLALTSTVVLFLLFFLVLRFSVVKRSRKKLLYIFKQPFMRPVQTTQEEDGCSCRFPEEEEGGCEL

B1: TSC 1004 (other)
chain: EPKSSDKTHTCPPCPAPPVAGAPSVFLFPPKPKDTLMISRTPEVTCVVVDVSHEDPEVKFNWYVDGVEVHNAKTKPREEQYNSTYRVVSVLTVLHQDWLNGKEYKCAVSNKALPAPIEKTISKAKGQPREPQVYTLPPSRDELTKNQVSLTCLVKGFYPSDIAVEWESNGQPENNYKTTPPVLDSDGSFFLYSKLTVDKSRWQQGNVFSCSVMHEALHNHYTQKSLSLSPG
notes: IgG1 Fc with E233P, L234V, L235A, G237A, K322A (EU); also called PVAG TSC01004
B2: TSC 1006 (other)
chain: B1 chain with V19A
notes: IgG1 Fc with E233P, L234A, L235A, G237A, K322A (EU); also called PAAG TSC01006
B3: Clone 6 anti-41BB murine monoclonal antibody (antibody, V domains shown)
VH: QVQLQQPGAELVKPGASVKLSCKASGYTFTSYWINWVKQRPGQGLEWIGNIYPGSSTTNYNEKFKSKATLTVDTSSSTAYMQLSSLTSDDSAVFYCASFSDGYYAYAMDYWVQGTSVTVSS
VL: DIQMTQTTSSLSASLGDRVTITCRASQDISNYLNWYQQKPDGTVKLLIYYTSRLHSGVPSRFSGGGSGTDYSLTISNLEQEDIATYFCQQGYTLPYTFGGGTKLEIK
notes: hybridoma-derived mouse antibody; also called mAb Clone 6; mouse clone 6
B4: TSC 1007 (other)
chain: EPKSSDKTHTCPPCPAPPAAAPSVFLFPPKPKDTLMISRTPEVTCVVVDVSHEDPEVKFNWYVDGVEVHNAKTKPREEQYNSTYRVVSVLTVLHQDWLNGKEYKCAVSNKALPAPIEKTISKAKGQPREPQVYTLPPSRDELTKNQVSLTCLVKGFYPSDIAVEWESNGQPENNYKTTPPVLDSDGSFFLYSKLTVDKSRWQQGNVFSCSVMHEALHNHYTQKSLSLSPG
notes: IgG1 Fc with E233P, L234A, L235A, deletion of G236, G237A, K322A (EU); also called PAAdel TSC01007

Key:
[1] = biological target: T7, C1Q (UniProt P02745 23-245; P02746 28-253; P02747 29-245); experiment: SPR, Fc captured, C1Q as analyte
T7 construct: also called complement C1Q
T7 sequence (P02745 23-245 limits assumed, chain 1 of 3): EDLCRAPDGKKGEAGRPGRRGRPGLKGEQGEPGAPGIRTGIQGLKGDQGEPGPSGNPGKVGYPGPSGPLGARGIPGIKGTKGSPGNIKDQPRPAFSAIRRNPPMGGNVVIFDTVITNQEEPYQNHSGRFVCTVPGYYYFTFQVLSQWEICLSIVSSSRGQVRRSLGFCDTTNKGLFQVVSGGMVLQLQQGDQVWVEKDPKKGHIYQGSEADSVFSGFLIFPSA
T7 sequence (P02746 28-253 limits assumed, chain 2 of 3): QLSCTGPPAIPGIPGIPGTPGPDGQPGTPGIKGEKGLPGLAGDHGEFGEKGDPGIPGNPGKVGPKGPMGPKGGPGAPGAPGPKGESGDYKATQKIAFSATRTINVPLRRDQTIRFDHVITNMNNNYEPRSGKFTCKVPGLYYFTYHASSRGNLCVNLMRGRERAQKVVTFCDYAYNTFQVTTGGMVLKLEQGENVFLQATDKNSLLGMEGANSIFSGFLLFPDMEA
T7 sequence (P02747 29-245 limits assumed, chain 3 of 3): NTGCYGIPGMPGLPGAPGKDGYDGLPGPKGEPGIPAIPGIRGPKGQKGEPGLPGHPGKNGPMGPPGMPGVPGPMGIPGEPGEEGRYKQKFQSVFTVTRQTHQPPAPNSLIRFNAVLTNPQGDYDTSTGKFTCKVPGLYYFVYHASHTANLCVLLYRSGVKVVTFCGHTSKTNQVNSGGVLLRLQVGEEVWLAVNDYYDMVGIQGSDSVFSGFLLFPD
Protocol: (§1) Fc mutations to be potentially integrated into an ADAPTIR™ bispecific construct were analyzed for binding to the common Fc receptors (human and cyno) and C1Q, which is a component of the complement activation system. SPR experiments were conducted at 25° C. in HBS-EP+ buffer on a Biacore T200 system.
(§2) For these experiments, all four flow cells of a CM5 sensor chip were immobilized with goat F(ab′)2 anti-human Fc (Jackson ImmunoResearch) to a response level of ˜4000 RU. Fc variants and wild type Fc were diluted to 100 nM in HBS-EP+ and captured on the surface of the chip for 120 seconds at a flow rate of 10 μL/min. Fcγ receptors (human and cyno, all purchased from R&D Systems) and complement (C1Q, purchased from Quidel Corporation and Complement Technology, Inc) were diluted in HBS-EP+ and then flowed as analytes at 30 μL/min for 120 seconds followed by a 120 seconds dissociation. Regeneration was achieved by flowing 10 mM glycine pH 1.7 at 30 μL/min for 30 seconds followed by a 60 seconds stabilization. Flow cell 1 was always left as a blank (no captured protein) for purposes of background signal subtraction. Blank-subtracted sensorgrams for each captured Fc variant were inspected for the presence of binding to any of the Fcγ receptor proteins or complement. There are polymorphisms in the Human Fc receptors IIA and RIIIA, so both sequences were tested for binding.

[2] = biological target: T8, Recombinant FcRn/b2M protein (human, UniProt P55899 24-297; P61769 21-119, limits assumed); experiment: SPR pH 6.0, FcRn/b2M immobilized, two-state reaction model
T8 construct: also called hFcRn/b2M; neonatal Fc receptor
Protocol: Recombinant FcRn/b2M protein was generated via transient transfection of HEK-293 cells with a bi-cistronic vector containing the genes for both FcRn and […]. The complex was purified using IMAC chromatography and subsequently buffer exchanged into IMAC elution buffer after verifying purity of the IMAC eluate by analytical SEC. hFcRn/b2M at 10 μg/ml in 10 mM sodium acetate (pH 4.5) was immobilized on a CM5 chip by direct amine coupling chemistry to a level of ˜600 RU. A reference flow cell was left blank.
Different concentrations of the Fc variant protein (5-80 nM by 2-fold dilutions in pH 6.0 running buffer) including running buffer as blank were injected in randomized order at 30 μL/min for 180 seconds followed by a 120 second dissociation period.
Sensorgrams obtained from kinetic SPR measurements were analyzed by the double subtraction method. The signal from the reference flow cell was subtracted from the analyte binding response obtained from flow cell with immobilized ligands. Buffer reference was subtracted from analyte binding responses, and the final double-referenced data were analyzed with Biacore T200 Evaluation software (2.0, GE), globally fitting data to derive kinetic parameters. All sensorgrams were fitted using two-state reaction model, as described in Weirong Wang et al, DrugMetab Dispos.: 39(9): 1469-77 (2011).

[3] = biological target: T9, Cyno RIII (cynomolgus monkey, UniProt Q8SPW2 17-208); experiment: SPR, Fc captured, receptor as analyte
T9 construct: extracellular domain
T9 sequence (Q8SPW2 17-208): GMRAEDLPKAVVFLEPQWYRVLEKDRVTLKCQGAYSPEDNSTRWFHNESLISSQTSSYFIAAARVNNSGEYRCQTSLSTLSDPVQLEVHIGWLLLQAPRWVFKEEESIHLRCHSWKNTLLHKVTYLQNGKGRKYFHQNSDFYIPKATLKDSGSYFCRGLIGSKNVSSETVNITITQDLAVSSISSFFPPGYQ
Protocol: as §2

[4] = biological target: T1, Fc gamma receptor RIIA R167; experiment: SPR, Fc captured, receptor as analyte, relative to wild type Fc
Protocol: as §1, §2

[5] = biological target: T10, Fc gamma receptor RIIIA V176 (human, UniProt P08637 17-208); experiment: SPR, Fc captured, receptor as analyte
T10 construct: soluble SPR analyte
T10 sequence (P08637 17-208 F176V): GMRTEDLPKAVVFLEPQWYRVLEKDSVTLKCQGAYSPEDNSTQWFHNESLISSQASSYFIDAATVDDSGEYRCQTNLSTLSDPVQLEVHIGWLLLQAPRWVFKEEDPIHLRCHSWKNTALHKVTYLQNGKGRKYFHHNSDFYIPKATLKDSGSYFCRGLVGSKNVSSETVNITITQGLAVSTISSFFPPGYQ
Protocol: as §1, §2

[6] = biological target: T2, Fc gamma receptor RIIA H167; experiment: SPR, Fc captured, receptor as analyte
Protocol: as §1, §2

[7] = biological target: T3, Fc gamma receptor RIIB/C; experiment: SPR, Fc captured, receptor as analyte
Protocol: as §1, §2

[8] = biological target: T11, Fc gamma receptor RIIIB (human, UniProt O75015 17-200); experiment: SPR, Fc captured, receptor as analyte
T11 construct: soluble SPR analyte
T11 sequence (O75015 17-200): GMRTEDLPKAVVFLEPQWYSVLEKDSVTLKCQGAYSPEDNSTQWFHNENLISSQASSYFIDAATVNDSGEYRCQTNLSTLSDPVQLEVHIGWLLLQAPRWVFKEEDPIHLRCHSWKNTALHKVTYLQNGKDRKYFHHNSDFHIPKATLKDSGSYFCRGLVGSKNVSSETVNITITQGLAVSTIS
Protocol: as §1, §2

[9] = biological target: T12, Fc gamma receptor RI (human, UniProt P12314 16-288); experiment: SPR, Fc captured, receptor as analyte
T12 construct: also called FcγRI
T12 sequence (P12314 16-288 limits assumed): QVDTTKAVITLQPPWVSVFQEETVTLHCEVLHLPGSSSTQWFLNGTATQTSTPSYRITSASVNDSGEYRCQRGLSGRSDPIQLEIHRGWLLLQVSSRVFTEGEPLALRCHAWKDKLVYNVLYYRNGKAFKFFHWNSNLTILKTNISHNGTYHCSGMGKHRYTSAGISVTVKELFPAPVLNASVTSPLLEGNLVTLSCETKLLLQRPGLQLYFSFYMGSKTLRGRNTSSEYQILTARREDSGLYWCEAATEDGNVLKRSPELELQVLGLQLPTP
Protocol: as §1, §2

[10] = biological target: T4, Fc gamma receptor RIIA H131 on CHO-K1SV …; experiment: flow cytometry, CHO-K1SV transfectants
Protocol: (§3) CHO-K1SV cells stably transfected with a series of FcγR receptors were incubated with each of the […] listed in Table 23. A typical experiment labeled approximately 100,000 cells per well, in 96-well plates, with a range of binding molecule concentrations of 1 to 1000 nM, in 100 μl of PBS buffer with 0.2% BSA and 2 mM EDTA, for 30 minutes on ice, followed by washes and incubation with PE-labeled minimum cross species reactive secondary antibody, goat anti-human IgG Fcγ, F(ab′)2 ([…]) for 30 minutes to 1 hour on ice. Signal from bound molecules was detected using a LSR-II™ flow cytometer (BD Biosciences) and analyzed by FlowJo flow cytometry analysis software. Mean fluorescence intensity (MFI) of bound molecules on cells was determined after exclusion of doublets.

[11] = biological target: T13, Fc gamma receptor RI on CHO-K1SV cells (human, UniProt P12314 16-374); experiment: flow cytometry, CHO-K1SV transfectants
T13 construct: whole, on cells; also called FcγR1 cells
T13 sequence (P12314 16-374): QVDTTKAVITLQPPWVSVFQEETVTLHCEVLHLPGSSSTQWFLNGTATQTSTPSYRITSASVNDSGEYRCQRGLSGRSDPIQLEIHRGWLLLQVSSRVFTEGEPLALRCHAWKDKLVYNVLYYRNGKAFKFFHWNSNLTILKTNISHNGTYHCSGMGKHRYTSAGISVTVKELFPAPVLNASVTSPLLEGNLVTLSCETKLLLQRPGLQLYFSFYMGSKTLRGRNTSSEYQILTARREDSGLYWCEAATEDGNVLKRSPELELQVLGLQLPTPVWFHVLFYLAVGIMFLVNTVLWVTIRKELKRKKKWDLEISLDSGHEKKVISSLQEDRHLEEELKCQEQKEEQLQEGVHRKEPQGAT
Protocol: as §3

[12] = biological target: T14, Fc gamma receptor RIIIA V158 on CHO-K1SV cells (human, UniProt P08637 17-254); experiment: flow cytometry, CHO-K1SV transfectants
T14 construct: whole, on cells
T14 sequence (P08637 17-254 F176V): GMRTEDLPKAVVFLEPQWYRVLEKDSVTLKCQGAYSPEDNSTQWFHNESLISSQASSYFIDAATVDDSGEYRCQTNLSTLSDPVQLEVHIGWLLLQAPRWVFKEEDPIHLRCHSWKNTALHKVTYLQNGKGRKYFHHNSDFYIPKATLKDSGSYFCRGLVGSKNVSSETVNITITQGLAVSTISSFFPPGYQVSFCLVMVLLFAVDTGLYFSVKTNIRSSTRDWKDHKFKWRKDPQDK
Protocol: as §3

[13] = biological target: T15, Fc gamma receptor RIIIB on CHO-K1SV cells (human, UniProt O75015 17-200); experiment: flow cytometry, CHO-K1SV transfectants
T15 construct: whole, on cells
T15 sequence (O75015 17-200): as the sequence (O75015 17-200) above
Protocol: as §3

[14] = biological target: T5, Fc gamma receptor RIIB/C on CHO-K1SV …; experiment: flow cytometry, CHO-K1SV transfectants
Protocol: as §3

[15] = biological target: T16, Fc gamma receptor RIIIA F158 on CHO-K1SV cells (human, UniProt P08637 17-254); experiment: flow cytometry, CHO-K1SV transfectants
T16 construct: whole, on cells
T16 sequence (P08637 17-254): as the sequence (P08637 17-254 F176V) above, with V160F counted along it
Protocol: as §3

[16] = biological target: T10, Fc gamma receptor RIIIA V176; experiment: SPR, Fc captured, receptor as analyte, relative to wild type Fc
Protocol: as §1, §2

[17] = biological target: T17, Full-length Human 4-1BB (human, UniProt Q07011 24-255); experiment: binding to cells expressing full length human 41BB
T17 construct: also called FOB005; CD137

[18] = biological target: T6, Full-length Cyno 4-1BB; experiment: binding to cells expressing full length cyno 41BB

| binding result [1] | Kd [2] [nM] | binding result [3] | binding result [4] | binding result [5] | binding result [6] | binding result [7] | binding result [8] | binding result [9] | binding result [10] | binding result [11] | binding result [12] | binding result [13] | binding result [14] | binding result [15] | binding result [16] | binding result [17] | binding result [18] | Binder |
| --- | --- | --- | --- | --- | --- | --- | --- | --- | --- | --- | --- | --- | --- | --- | --- | --- | --- | --- |
| no binding | 20 | no binding | binds | no binding | no binding | no binding | no binding | no binding | no binding (tested: 1 to 1000 nM) | no binding (tested: 1 to 1000 nM) | no binding (tested: 1 to 1000 nM) | no binding (tested: 1 to 1000 nM) | no binding (tested: 1 to 1000 nM) | no binding (tested: 1 to 1000 nM) |  |  |  | B1 |
| no binding | 19 | no binding | binds |  | no binding | no binding | no binding | no binding | no binding (tested: 1 to 1000 nM) | no binding (tested: 1 to 1000 nM) |  | no binding (tested: 1 to 1000 nM) | no binding (tested: 1 to 1000 nM) | no binding (tested: 1 to 1000 nM) | binds |  |  | B2 |
|  |  |  |  |  |  |  |  |  |  |  |  |  |  |  |  | binds | binds | B3 |
| no binding | 19 | no binding | binds | no binding | no binding | no binding | no binding | no binding | no binding (tested: 1 to 1000 nM) | no binding (tested: 1 to 1000 nM) | no binding (tested: 1 to 1000 nM) | no binding (tested: 1 to 1000 nM) | no binding (tested: 1 to 1000 nM) | no binding (tested: 1 to 1000 nM) |  |  |  | B4 |
